We go through 37 sequences from the supplement of paper PMC9732359.

This series in a line: protein stability index of a GFP-peptide fusion (yeast GPS) (PSI 1-4); higher = more stable; sorted into four equal gates, so the index is relative within each strain. The procedure, abridged:
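Mid-log yeast cultures in leucine-free medium, carrying a pooled plasmid library, were sorted into four equal gates by their GFP/Cherry fluorescence ratio. Each plasmid expressed Cherry along with GFP fused upstream of a tiled 17-residue yeast protein peptide. Plasmids recovered from each gate were PCR-amplified and Illumina-sequenced, with reads assigned to strains by barcodes. The protein stability index was obtained by summing each gate's read frequency weighted by its gate number.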

± gives the uncertainty stated by the source.

With SRGLFEKKLMQDNKQLY [YDL116W/NUP84], the protein stability index came out at 2.75 ± 0.067 (doa10∆), 3.06 ± 0.09 (pdr5∆), 3.11 ± 0.078 (san1∆) and 2.93 ± 0.1 (ubr1∆).

EKRIQYAKDILQKEFLP [RPB2]: the protein stability index is, setting by setting: (doa10∆) 2.06 ± 0.055; (pdr5∆) 1.85 ± 0.052; (san1∆) 2.06 ± 0.091; (ubr1∆) 2.08 ± 0.09.

Consider EKGENPSCVYNLIGVIT [UBP6], for which the protein stability index is, setting by setting: (doa10∆) 2.64 ± 0.072; (pdr5∆) 2.79 ± 0.093; (san1∆) 3.07 ± 0.081; (ubr1∆) 3.06 ± 0.1.

For ALEEAKLSDNISICMIL [YDL116W/NUP84], the protein stability index (doa10∆) turned out to be 2.87 ± 0.076, the protein stability index (pdr5∆) came out at 3.02 ± 0.073, the protein stability index (san1∆) is 3.04 ± 0.06 and the protein stability index (ubr1∆) stood at 3.21 ± 0.043.

As for KQNSSSDINQNDDSSSM [YDL088C/ASM4], the protein stability index is 3.1 ± 0.17 (doa10∆), 2.94 ± 0.08 (pdr5∆), 2.58 ± 0.088 (san1∆) and 2.69 ± 0.058 (ubr1∆).

On to IHVLEQDGGIMGSLING [SKI6], for which the protein stability index (doa10∆) turned out to be 3.45 ± 0.09, the protein stability index (pdr5∆) came to 3.1 ± 0.1, the protein stability index (san1∆) amounted to 3.36 ± 0.082 and the protein stability index (ubr1∆) came to 3.18 ± 0.066.

For the sequence MGNTKVHCRISCQIAQP [RRP45], the protein stability index by setting is: (doa10∆) 1.64 ± 0.059; (pdr5∆) 2.04 ± 0.079; (san1∆) 1.56 ± 0.1; (ubr1∆) 1.91 ± 0.056.

Turning to EAMYKLQLASLQQKQRD [SMC3], the protein stability index was determined as 2.71 ± 0.091 (doa10∆), 2.76 ± 0.078 (pdr5∆), 2.52 ± 0.087 (san1∆) and 2.54 ± 0.063 (ubr1∆).

Take GVHTGQFIYAGKKASLN [RPL2A]: the protein stability index is, setting by setting: (pdr5∆) 3.51 ± 0.19; (san1∆) 3.15 ± 0.1; (ubr1∆) 3.4 ± 0.12.

As to IDSVEVETNTTVLADEF [RPB3], the protein stability index (doa10∆) worked out at 2.96 ± 0.076, the protein stability index (pdr5∆) turned out to be 3.17 ± 0.071, the protein stability index (san1∆) stood at 3.09 ± 0.051 and the protein stability index (ubr1∆) was determined as 3.16 ± 0.037.

Regarding DRFKYRSVDRAGRKFKS [POP4], the protein stability index amounted to 3.04 ± 0.2 (doa10∆), 3.24 ± 0.18 (pdr5∆), 3.52 ± 0.097 (san1∆) and 3.55 ± 0.16 (ubr1∆).

Take EMSNKVLKVDKRFMNTS [BRR2]: the protein stability index by setting is: (doa10∆) 2.9 ± 0.04; (pdr5∆) 2.96 ± 0.05; (san1∆) 2.99 ± 0.038; (ubr1∆) 2.93 ± 0.039.

Take LTSGLLYSYLIKENFFE [YJL039C/NUP192]: the protein stability index (doa10∆) turned out to be 1.9 ± 0.1, the protein stability index (pdr5∆) was found to be 1.74 ± 0.14, the protein stability index (san1∆) came out at 1.71 ± 0.12 and the protein stability index (ubr1∆) came to 1.2 ± 0.077.

Turning to GHVKPVRCVNCSKSIPK [RPS26A], the protein stability index by setting is: (doa10∆) 2.8 ± 0.1; (pdr5∆) 2.7 ± 0.11; (san1∆) 2.16 ± 0.19; (ubr1∆) 3.06 ± 0.14.

With KQINHQGEEEELIALNL [RPB4], the protein stability index reads like this: (doa10∆) 3.34 ± 0.15; (pdr5∆) 3.59 ± 0.13; (san1∆) 3.2 ± 0.076; (ubr1∆) 3.42 ± 0.11.

Take AELDPSLRTPIAPKITP [SEC65]: the protein stability index was 3.06 ± 0.1 (doa10∆), 3.05 ± 0.058 (pdr5∆), 3 ± 0.082 (san1∆) and 3.13 ± 0.055 (ubr1∆).

Turning to DEKVTILVDSLTGNQLP [SWI1], the protein stability index reads like this: (doa10∆) 2.76 ± 0.057; (pdr5∆) 2.72 ± 0.064; (san1∆) 2.9 ± 0.04; (ubr1∆) 2.95 ± 0.046.

AYHQKYVDEQSKNELKK [RPS16A]: the protein stability index is, setting by setting: (doa10∆) 2.5 ± 0.093; (pdr5∆) 2.02 ± 0.094; (san1∆) 2.02 ± 0.13; (ubr1∆) 2.94 ± 0.12.

With VNKYGLRADKLYEKLKQ [ISW2], the protein stability index reads like this: (doa10∆) 1.52 ± 0.13; (pdr5∆) 1.5 ± 0.11; (san1∆) 1.6 ± 0.13; (ubr1∆) 1.47 ± 0.15.

Consider KKIVDSKKLNLKIHQSH [YMR129W/POM152], for which the protein stability index by setting is: (doa10∆) 2.85 ± 0.067; (pdr5∆) 2.7 ± 0.056; (san1∆) 2.44 ± 0.17; (ubr1∆) 2.69 ± 0.062.

With LIQSYSLLDKPDEAIEK [FAS1], the protein stability index reads like this: (doa10∆) 2.82 ± 0.087; (pdr5∆) 2.75 ± 0.084; (san1∆) 2.14 ± 0.087; (ubr1∆) 2.79 ± 0.082.

Take VESQFSAGRLYACISSR [RPS8A]: the protein stability index runs as follows: (doa10∆) 2.08 ± 0.11; (pdr5∆) 2.65 ± 0.097; (san1∆) 1.99 ± 0.14; (ubr1∆) 2.55 ± 0.14.

Consider QQLQVLARYLKMDLDNG [FAS2], for which the protein stability index by setting is: (doa10∆) 1.9 ± 0.13; (pdr5∆) 2.04 ± 0.089; (san1∆) 2.78 ± 0.079; (ubr1∆) 2.31 ± 0.051.

As for YPLLIRMSYGSHDKKTK [SRP14], the protein stability index by setting is: (doa10∆) 2.61 ± 0.06; (pdr5∆) 2.49 ± 0.069; (san1∆) 2.57 ± 0.043; (ubr1∆) 2.6 ± 0.053.

With LFVISTEISPMAGSQFE [RRP45], the protein stability index reads like this: (doa10∆) 1.89 ± 0.08; (pdr5∆) 2.21 ± 0.06; (san1∆) 2.8 ± 0.077; (ubr1∆) 1.2 ± 0.11.

LPSHIISTSDVTRIINS [RPL4A]: the protein stability index is 2.43 ± 0.033 (doa10∆), 2.66 ± 0.038 (pdr5∆), 2.41 ± 0.035 (san1∆) and 2.55 ± 0.029 (ubr1∆).

Regarding LFSLLELGEQKCQELVT [RRP46], the protein stability index (doa10∆) turned out to be 1.97 ± 0.061, the protein stability index (pdr5∆) came to 1.8 ± 0.056, the protein stability index (san1∆) turned out to be 1.87 ± 0.093 and the protein stability index (ubr1∆) was determined as 2.1 ± 0.058.

Take LQEAIDFAQKEINGDDD [PRE10]: the protein stability index was found to be 2.96 ± 0.087 (doa10∆), 3 ± 0.079 (pdr5∆), 3.23 ± 0.067 (san1∆) and 2.96 ± 0.076 (ubr1∆).

Turning to ELFDILSTSEDVSIEEL [IRR1], the protein stability index (doa10∆) was 2.66 ± 0.17, the protein stability index (pdr5∆) came out at 2.15 ± 0.2, the protein stability index (san1∆) was found to be 2.6 ± 0.21 and the protein stability index (ubr1∆) was determined as 2 ± 0.13.

For the sequence RAPELLLGARHYTPAVD [SSN3], the protein stability index runs as follows: (doa10∆) 1.67 ± 0.12; (pdr5∆) 1.08 ± 0.13; (san1∆) 1.9 ± 0.3; (ubr1∆) 1.56 ± 0.11.

Regarding YSVLLESPLSVAIQQGD [YML103C/NUP188], the protein stability index amounted to 1.23 ± 0.091 (doa10∆), 1.16 ± 0.063 (pdr5∆), 1.2 ± 0.17 (san1∆) and 1.19 ± 0.077 (ubr1∆).

With KIEGVATPQEAQFYLGK [RPL33B], the protein stability index by setting is: (doa10∆) 2.87 ± 0.083; (pdr5∆) 3.03 ± 0.098; (san1∆) 2.91 ± 0.091; (ubr1∆) 3 ± 0.072.

For KKSVLKQVQDFEENDHP [COR1], the protein stability index amounted to 2.85 ± 0.084 (doa10∆), 2.81 ± 0.15 (pdr5∆), 2.81 ± 0.098 (san1∆) and 2.66 ± 0.067 (ubr1∆).

On to ELSFYILYSFKLSGKLL [YML103C/NUP188], for which the protein stability index runs as follows: (doa10∆) 1.47 ± 0.043; (pdr5∆) 1.49 ± 0.04; (san1∆) 1.49 ± 0.081; (ubr1∆) 1.74 ± 0.037.

For EIDPLTGMPISNDPDVN [BRN1], the protein stability index is 2.87 ± 0.13 (san1∆) and 3.03 ± 0.085 (ubr1∆).

Take IEQCKHPLHELIIQYPP [ISW2]: the protein stability index reads like this: (doa10∆) 3.19 ± 0.1; (pdr5∆) 2.82 ± 0.094; (san1∆) 2.59 ± 0.1; (ubr1∆) 3.1 ± 0.068.

KFNNTQRESQIGAAELN [SNF12] came in with a protein stability index (doa10∆) of 3.01 ± 0.097, a protein stability index (pdr5∆) of 3.03 ± 0.14, a protein stability index (san1∆) of 2.87 ± 0.057 and a protein stability index (ubr1∆) of 3.38 ± 0.09.
